Substitutions are numbered along the chain they refer to.
Assays:
Test in all cases: ITC; Lge1-CT (50–60 μM) injected into Bre1-LR (15 μM); 25°C, 20 mM TRIS (pH 7.5), 200 mM sodium chloride
Conditions in all cases: both partners purified
[1] = target: T1, Bre1-LR K379A (budding yeast, UniProt Q07457 227-700, K379A)
T1 construct: source: E. coli BL21 Rosetta (DE3), purified (Ni-NTA, heparin, gel filtration)
T1 sequence (looked up): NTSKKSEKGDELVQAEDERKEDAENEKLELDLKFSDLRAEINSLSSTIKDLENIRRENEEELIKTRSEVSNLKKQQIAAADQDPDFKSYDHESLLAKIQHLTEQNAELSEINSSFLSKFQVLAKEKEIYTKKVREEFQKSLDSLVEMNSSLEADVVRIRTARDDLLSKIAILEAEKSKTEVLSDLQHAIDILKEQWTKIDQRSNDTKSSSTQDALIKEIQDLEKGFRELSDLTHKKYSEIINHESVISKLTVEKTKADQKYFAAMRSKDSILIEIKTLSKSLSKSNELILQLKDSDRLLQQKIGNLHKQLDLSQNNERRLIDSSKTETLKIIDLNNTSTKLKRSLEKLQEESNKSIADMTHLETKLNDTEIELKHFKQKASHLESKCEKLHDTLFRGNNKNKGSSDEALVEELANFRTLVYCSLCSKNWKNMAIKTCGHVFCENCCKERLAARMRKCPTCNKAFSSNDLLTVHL

[2] = target: T2, Bre1-LR K352E (budding yeast, UniProt Q07457 227-700, K352E)
T2 construct: source: E. coli BL21 Rosetta (DE3), purified (Ni-NTA, heparin, gel filtration)
T2 sequence (looked up): T1 sequence (looked up) with K126E, A153K

[3] = target: T3, Bre1-LR E378K/E500K (budding yeast, UniProt Q07457 227-700, E378K | E500K)
T3 construct: source: E. coli BL21 Rosetta (DE3), purified (Ni-NTA, heparin, gel filtration)
T3 sequence (looked up): T1 sequence (looked up) with E152K, A153K, E274K

[4] = target: T4, Bre1-LR K379E (budding yeast, UniProt Q07457 227-700, K379E)
T4 construct: source: E. coli BL21 Rosetta (DE3), purified (Ni-NTA, heparin, gel filtration)
T4 sequence (looked up): T1 sequence (looked up) with A153E

Kd [1]: 82.3 ± 20 nM
dH [1]: -44.1 ± 1.8 kcal/mol
stoichiometry N [1]: 0.415 ± 0.007
Kd [2]: 176 ± 45 nM
dH [2]: -22.9 ± 1.3 kcal/mol
stoichiometry N [2]: 0.432 ± 0.011
Kd [3]: 98 ± 31.2 nM
dH [3]: -40.7 ± 1.9 kcal/mol
stoichiometry N [3]: 0.256 ± 0.007
Kd [4]: 58.1 ± 19 nM
dH [4]: -37.7 ± 1.6 kcal/mol
stoichiometry N [4]: 0.428 ± 0.008
B1: Lge1-CT (Lge1 residues 261–332), intein-chitin binding domain (CBD) tag construct (domain or fragment, budding yeast, UniProt Q02796 261-332, looked up)
chain: KNVKKTNNTESECEKAREVFKESDSIDSALEELNLKINSNELELRLLNNQCDKHALNIQLTQEKLDSLLLMQ
notes: Lge1, budding yeast, residues 261-332; residues 268–331 resolved in the electron density; the intein-CBD tag is named on the protein in the pull-down; also called intein-CBD-fused Lge1-CT; intein-CBD-tagged Lge1-CT; source: E. coli BL21 Rosetta (DE3): cleared cell extract on chitin resin (pull-down); purified (chitin, heparin, gel filtration) for ITC and SPR; co-purified with Bre1-LR for the …
